Measured values published in article PMC5714172.

Molecular target: MBP-Hsmar1 transposase (human)
Test: SEC; Superdex 200 10/300 GL, GF buffer (25 mM HEPES pH 7.5, 200 mM NaCl, 2 mM DTT, 5 mM EDTA, 0.1% Triton X-100 reduced); ^MBPHsmar1 after increasing Factor Xa proteolysis (1 ug protease per 50 ug fusion protein)

stoichiometry N: 2
Substance: MBP-Hsmar1 transposase (enzyme)
